B1: hTRT peptide p342 (RPSFLLSSL) (peptide)
peptide: RPSFLLSSL
notes: Synthetic 9mer peptide of human telomerase reverse transcriptase
B2: hTRT peptide p444 (DPRRLVQLL) (peptide)
peptide: DPRRLVQLL
notes: as for B1
B3: hTRT peptide p966 (AGRNMRRKL) (peptide)
peptide: AGRNMRRKL
notes: as for B1
B4: hTRT peptide p1107 (LPGTTLTAL) (peptide)
peptide: LPGTTLTAL
notes: as for B1
B5: hTRT peptide p1123 (LPSDFKTIL) (peptide)
peptide: LPSDFKTIL
notes: as for B1
B6: hTRT peptide p464 (FVRACLRRL) (peptide)
peptide: FVRACLRRL
notes: as for B1

Assays:
[1] = molecular target: T1, purified HLA-B*5401 (human); assay: competition radioimmunoassay on purified HLA, radiolabeled standard peptide
T1 construct: Purified MHC class I molecule incubated with human b2m; also called B*54011
Source text: (§1) Supertype analysis. […] Under the conditions utilized, where [label]<[MHC] and IC₅₀≧[MHC], the measured IC₅₀ values are reasonable approximations of the true Kd values.

[2] = molecular target: T2, purified HLA-B*5301 (human); assay: as above
T2 construct: Purified MHC class I molecule incubated with human b2m
Source text: as §1

[3] = molecular target: T3, purified HLA-B*0801 (human); assay: as above
T3 construct: Purified MHC class I molecule incubated with human b2m; not officially part of the HLA-B7 supertype
Source text: as §1

[4] = molecular target: T4, purified HLA-B*0702 (human); assay: as above
T4 construct: Purified MHC class I molecule incubated with human b2m; complexes captured with W6/32 antibody; also called HLA-B7; immobilized purified HLA-B7 molecule
Source text: as §1

[5] = molecular target: T4, purified HLA-B*0702; assay: competition solid-phase radioimmunoassay on purified HLA-B7, radiolabeled standard peptide
Source text: Next, we assessed the actual binding avidity for HLA-B7 (HLA-B*0702). Two independent assays were used: binding stabilization assay on T2-B7 cells by flow cytometry (12) and a competitive solid-phase radioimmunoassay on immobilized purified HLA-B7 molecule (35).

[6] = molecular target: T5, purified HLA-B*3501 (human); assay: competition radioimmunoassay on purified HLA, radiolabeled standard peptide
T5 construct: Purified MHC class I molecule incubated with human b2m
Source text: as §1

[7] = molecular target: T6, purified HLA-B*5101 (human); assay: as above
T6 construct: Purified MHC class I molecule incubated with human b2m
Source text: as §1

Binder | IC50 [1] | IC50 [2] | IC50 [3] | IC50 [4] | IC50 [5] | IC50 [6] | IC50 [7]
B1 | 12600 nM | – | – | – | – | – | –
B2 | 21900 nM | – | – | – | – | – | –
B3 | 34100 nM | – | – | – | – | – | –
B4 | – | 120 nM | 192 nM | 0.96 nM | 0.96 nM | – | –
B5 | 19900 nM | 2.4 nM | 74 nM | 11 nM | 11 nM | 5 nM | 1620 nM
B6 | 18800 nM | – | 123 nM | 4.1 nM | 4.1 nM | – | –

Source: US20090202499A1 (University of California, published 2009)
